The target in the experiment is full-length recombinant human proteoglycan 4 (rhPRG4) (human, UniProt Q92954 25-1404). Nature of the experiment: SPR.

B1: recombinant human matrix metalloproteinase 9 (rhMMP-9) (enzyme)
chain: APRQRQSTLVLFPGDLRTNLTDRQLAEEYLYRYGYTRVAEMRGESKSLGPALLLLQKQLSLPETGELDSATLKAMRTPRCGVPDLGRFQTFEGDLKWHHHNITYWIQNYSEDLPRAVIDDAFARAFALWSAVTPLTFTRVYSRDADIVIQFGVAEHGDGYPFDGKDGLLAHAFPPGPGIQGDAHFDDDELWSLGKGVVVPTRFGNADGAACHFPFIFEGRSYSACTTDGRSDGLPWCSTTANYDTDDRFGFCPSERLYTQDGNADGKPCQFPFIFQGQSYSACTTDGRSDGYRWCATTANYDRDKLFGFCPTRADSTVMGGNSAGELCVFPFTFLGKEYSTCTSEGRGDGRLWCATTSNFDSDKKWGFCPDQGYSLFLVAAHEFGHALGLDHSSVPEALMYPMYRFTEGPPLHKDDVNGIRHLYGPRPEPEPRPPTTTTPQPTAPPTVCPTGPPTVHPSERPTAGPTGPPSAGPTGPPTAGPSTATTVPLSPVDDACNVNIFDAIAEIGNQLYLFKDGKYWRFSEGRGSRPQGPFLIADKWPALPRKLDSVFEERLSKKLFFFSGRQVWVYTGASVLGPRRLDKLGLGADVAQVTGALRSGRGKMLLFSGRRLWRFDVKAQMVDPRSASEVDRMFPGVPLDTHDVFQYREKAYFCQDRFYWRVSSRSELNQVDQVGYVTYDILQCPED
As for B1, the equilibrium dissociation constant (Kd) worked out at 42.1 nM, the koff amounted to 0.000937 s⁻¹ and the kon worked out at 22300 M⁻¹ s⁻¹.
